Read-outs that look alike come from different tables or passages of the source.

Assay [1] addresses type I collagen extracted from male Wistar Hannover rat tail tendons (dialyzed) (rat (Wistar Hannover, extracted from tail tendons)) (UniProt P02454). In words: ITC; NaOH (4.6 uM in ultrapure water) titrated in 24 aliquots into 950 uL type I collagen (0.2 mg/mL in 0.33% v/v acetic acid), 30.0 ± 0.1 °C, stirred at 300 rpm; self-assembly (fibrillogenesis) triggered by the rise in pH; areas corrected by the acid-base control titration; enthalpy of self-assembly at the isoelectric point; at least triplicate. (In general: In ITC the heat of successive injections is recorded.)

Assay [2] shares this target. The description is as above. This is another data set of the same source.

Sequence of type I collagen extracted from male Wistar Hannover rat tail tendons (dialyzed), P02454 152-1207; P02466 86-1125 (complex; other documents disagree on this pair) (P02454 152-1207): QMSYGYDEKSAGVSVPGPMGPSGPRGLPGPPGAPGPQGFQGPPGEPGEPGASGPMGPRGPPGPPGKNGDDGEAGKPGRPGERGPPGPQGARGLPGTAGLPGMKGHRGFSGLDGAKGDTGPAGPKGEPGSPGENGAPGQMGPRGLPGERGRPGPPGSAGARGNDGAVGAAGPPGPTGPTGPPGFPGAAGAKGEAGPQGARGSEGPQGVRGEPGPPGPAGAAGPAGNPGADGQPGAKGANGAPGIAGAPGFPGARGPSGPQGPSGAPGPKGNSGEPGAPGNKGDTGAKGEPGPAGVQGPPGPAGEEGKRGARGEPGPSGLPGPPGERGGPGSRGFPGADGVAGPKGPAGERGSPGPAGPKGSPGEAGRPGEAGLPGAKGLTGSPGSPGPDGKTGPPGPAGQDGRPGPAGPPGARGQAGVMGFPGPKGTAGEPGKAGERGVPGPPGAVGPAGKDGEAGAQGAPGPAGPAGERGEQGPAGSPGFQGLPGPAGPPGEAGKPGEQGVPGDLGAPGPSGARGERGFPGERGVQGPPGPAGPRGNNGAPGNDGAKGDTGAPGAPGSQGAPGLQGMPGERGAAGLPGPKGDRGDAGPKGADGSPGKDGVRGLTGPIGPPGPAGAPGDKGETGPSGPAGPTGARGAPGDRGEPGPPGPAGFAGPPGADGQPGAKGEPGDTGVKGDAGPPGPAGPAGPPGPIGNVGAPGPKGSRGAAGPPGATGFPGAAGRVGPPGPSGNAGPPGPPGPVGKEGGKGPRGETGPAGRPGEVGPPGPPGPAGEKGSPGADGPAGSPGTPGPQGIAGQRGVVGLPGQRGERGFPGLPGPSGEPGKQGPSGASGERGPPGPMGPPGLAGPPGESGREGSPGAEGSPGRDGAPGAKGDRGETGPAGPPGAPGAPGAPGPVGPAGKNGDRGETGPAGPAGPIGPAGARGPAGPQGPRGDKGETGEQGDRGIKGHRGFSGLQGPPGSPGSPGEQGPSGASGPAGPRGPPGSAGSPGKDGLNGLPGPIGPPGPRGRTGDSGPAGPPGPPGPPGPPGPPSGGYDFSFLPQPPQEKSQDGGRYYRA
Sequence of type I collagen extracted from male Wistar Hannover rat tail tendons (dialyzed), P02454 152-1207; P02466 86-1125 (complex; other documents disagree on this pair) (P02466 86-1125): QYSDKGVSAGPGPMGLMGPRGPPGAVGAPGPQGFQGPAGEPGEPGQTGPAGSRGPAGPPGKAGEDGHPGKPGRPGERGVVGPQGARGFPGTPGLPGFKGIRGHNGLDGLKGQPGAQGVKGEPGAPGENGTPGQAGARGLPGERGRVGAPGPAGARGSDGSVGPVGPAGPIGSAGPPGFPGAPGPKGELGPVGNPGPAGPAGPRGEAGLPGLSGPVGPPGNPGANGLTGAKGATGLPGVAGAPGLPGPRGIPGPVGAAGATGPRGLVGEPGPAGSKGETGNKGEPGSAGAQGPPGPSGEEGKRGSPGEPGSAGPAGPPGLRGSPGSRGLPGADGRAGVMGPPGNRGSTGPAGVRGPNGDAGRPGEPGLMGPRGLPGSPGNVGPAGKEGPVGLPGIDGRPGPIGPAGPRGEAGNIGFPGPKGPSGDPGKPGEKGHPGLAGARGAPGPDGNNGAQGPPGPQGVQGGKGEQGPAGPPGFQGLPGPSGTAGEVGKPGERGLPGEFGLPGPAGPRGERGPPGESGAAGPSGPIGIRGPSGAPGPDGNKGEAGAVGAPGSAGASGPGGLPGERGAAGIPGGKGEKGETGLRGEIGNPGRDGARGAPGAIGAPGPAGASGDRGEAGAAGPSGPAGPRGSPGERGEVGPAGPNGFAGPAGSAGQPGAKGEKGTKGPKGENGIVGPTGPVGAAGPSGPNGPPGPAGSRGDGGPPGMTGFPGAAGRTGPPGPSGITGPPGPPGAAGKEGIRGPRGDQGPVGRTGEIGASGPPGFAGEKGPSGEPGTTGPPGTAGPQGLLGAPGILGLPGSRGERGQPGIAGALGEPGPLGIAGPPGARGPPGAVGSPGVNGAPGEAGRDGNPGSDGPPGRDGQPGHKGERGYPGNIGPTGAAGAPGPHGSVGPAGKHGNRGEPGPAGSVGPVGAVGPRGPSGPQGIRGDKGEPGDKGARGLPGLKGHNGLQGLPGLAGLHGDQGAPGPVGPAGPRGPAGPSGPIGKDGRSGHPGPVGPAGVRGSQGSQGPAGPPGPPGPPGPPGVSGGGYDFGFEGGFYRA

Turning to “type I collagen extracted from male Wistar Hannover rat tail tendons (dialyzed), P02454 152-1207; P02466 86-1125 (complex; other documents disagree on this pair)”, the dH in assay [1] amounted to 0.000784 kcal/mol; in assay [2], 0.000782 kcal/mol.
